In patent publication US20040048327A1 (GEORGIA TECH RESEARCH, published 2004):
Numbered stars: 1 amine (or outer) side, 2 acyl side, 3 side chain; on linkers, the order of the positions; unused ones are H or OH. Square brackets hold non-standard residues; d marks the D form. * marks the point of attachment. AAsn = aza-asparagine, NC(=O)CN(N[*:1])C(=O)[*:2]; AAsp = aza-Asp, O=C(N(CC(=O)[*:3])N[*:1])[*:2]; azaAsp = O=C(N(CC(=O)[*:3])N[*:1])[*:2]; PhPr = N-terminal cap as named (PhPr); azaAsn = NC(=O)CN(N[*:1])C(=O)[*:2]; (S,S)‑EP = not defined here; trans‑EP = not defined here; Cbz = O=C(OCc1ccccc1)*

Tests used:
Assay in all cases: cell-based or functional assay
[1] = biological target: T1, schistosome legumain SmAE (Schistosoma mansoni asparaginyl endopeptidase) (Schistosoma mansoni, UniProt P09841 32-291)
T1 sequence (looked up): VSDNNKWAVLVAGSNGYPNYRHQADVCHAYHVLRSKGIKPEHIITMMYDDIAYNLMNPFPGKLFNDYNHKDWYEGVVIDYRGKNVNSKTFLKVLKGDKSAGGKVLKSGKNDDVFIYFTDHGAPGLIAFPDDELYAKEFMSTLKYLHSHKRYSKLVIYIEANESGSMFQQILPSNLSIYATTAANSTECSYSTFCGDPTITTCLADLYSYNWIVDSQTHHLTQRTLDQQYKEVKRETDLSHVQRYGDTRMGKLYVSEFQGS

[2] = biological target: T2, autolytically stable caspase-1 variant (D381 E) (UniProt P29466 120-404, limits assumed)
T2 sequence (looked up): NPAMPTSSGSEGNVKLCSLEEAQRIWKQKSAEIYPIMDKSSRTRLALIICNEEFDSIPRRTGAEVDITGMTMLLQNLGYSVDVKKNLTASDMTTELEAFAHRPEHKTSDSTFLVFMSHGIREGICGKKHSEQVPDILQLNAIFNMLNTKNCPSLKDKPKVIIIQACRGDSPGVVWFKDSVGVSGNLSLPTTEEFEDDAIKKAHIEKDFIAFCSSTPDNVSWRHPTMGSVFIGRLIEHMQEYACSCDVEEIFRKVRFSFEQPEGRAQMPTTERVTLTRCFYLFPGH

[3] = biological target: T3, caspase-3 (UniProt P42574 29-277, limits assumed)
T3 sequence (looked up): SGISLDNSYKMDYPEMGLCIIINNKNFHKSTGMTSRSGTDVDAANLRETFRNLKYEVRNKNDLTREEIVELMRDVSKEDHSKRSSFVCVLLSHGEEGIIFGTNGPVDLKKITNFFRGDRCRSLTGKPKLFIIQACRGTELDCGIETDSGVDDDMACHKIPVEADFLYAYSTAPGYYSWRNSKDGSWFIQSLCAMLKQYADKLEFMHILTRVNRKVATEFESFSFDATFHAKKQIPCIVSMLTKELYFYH

[4] = biological target: T4, caspase-6 (UniProt P55212 24-293, limits assumed)
T4 sequence (looked up): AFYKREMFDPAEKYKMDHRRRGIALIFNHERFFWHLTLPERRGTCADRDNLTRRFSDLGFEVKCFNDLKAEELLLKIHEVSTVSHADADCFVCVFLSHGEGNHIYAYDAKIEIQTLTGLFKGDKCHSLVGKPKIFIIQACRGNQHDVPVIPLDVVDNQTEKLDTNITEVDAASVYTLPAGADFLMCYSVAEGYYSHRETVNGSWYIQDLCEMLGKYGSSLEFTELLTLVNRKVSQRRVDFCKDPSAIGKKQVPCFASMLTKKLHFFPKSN

[5] = biological target: porcine pepsin (porcine, UniProt P00791 60-385)
Chain of porcine pepsin (P00791 60-385 limits assumed): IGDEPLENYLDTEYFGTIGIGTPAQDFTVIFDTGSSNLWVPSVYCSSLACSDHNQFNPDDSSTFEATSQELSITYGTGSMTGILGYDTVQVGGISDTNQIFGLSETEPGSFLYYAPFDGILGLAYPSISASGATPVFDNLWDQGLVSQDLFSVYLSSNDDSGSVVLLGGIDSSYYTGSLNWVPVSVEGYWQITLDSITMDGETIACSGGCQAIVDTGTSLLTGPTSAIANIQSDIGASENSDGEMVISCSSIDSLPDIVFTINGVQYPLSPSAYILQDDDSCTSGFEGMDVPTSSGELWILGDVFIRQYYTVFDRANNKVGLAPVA

[6] = biological target: human cathepsin D (human, UniProt P07339 65-412)
Chain of human cathepsin D (P07339 65-412 limits assumed): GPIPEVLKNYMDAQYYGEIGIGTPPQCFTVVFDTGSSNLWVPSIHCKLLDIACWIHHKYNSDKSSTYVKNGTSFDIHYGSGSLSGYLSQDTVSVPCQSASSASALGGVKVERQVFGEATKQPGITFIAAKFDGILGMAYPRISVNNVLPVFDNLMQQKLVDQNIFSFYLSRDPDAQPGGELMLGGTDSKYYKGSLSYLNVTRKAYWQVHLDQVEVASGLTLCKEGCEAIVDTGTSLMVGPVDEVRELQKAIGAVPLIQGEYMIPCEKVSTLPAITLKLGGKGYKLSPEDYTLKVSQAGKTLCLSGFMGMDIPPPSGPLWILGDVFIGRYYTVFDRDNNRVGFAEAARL

[7] = biological target: plasmepsin 2 (from P. falciparum) (P. falciparum, UniProt P46925 125-453, limits assumed)
Chain of plasmepsin 2 (from P. falciparum) (P46925 125-453 limits assumed): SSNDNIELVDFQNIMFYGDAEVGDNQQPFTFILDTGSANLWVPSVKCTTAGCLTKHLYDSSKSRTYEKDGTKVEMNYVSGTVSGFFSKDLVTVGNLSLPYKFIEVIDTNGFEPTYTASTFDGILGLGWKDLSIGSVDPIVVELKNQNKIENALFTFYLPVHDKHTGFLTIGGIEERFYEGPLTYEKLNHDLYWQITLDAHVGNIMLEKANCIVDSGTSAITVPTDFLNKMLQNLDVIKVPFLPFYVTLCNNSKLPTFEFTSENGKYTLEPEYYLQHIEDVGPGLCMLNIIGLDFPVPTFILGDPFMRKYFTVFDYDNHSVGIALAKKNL

[8] = biological target: secreted aspartic proteinase 2 (SAP-2) from Candida albicans (Candida albicans)
[9] = biological target: HIV-1 protease (HIV-1)

Binder	IC50 [1] [nM]	k2 [3] [M⁻¹ s⁻¹]	k2 [4] [M⁻¹ s⁻¹]	other results
Cbz-Ala-Ala-[AAsn]-{(S,S)‑EP-CON(CH3)CH2Ph} (reading uncertain; also: printed as Cbz-Ala-Ala-AAsn-(S, S)-EP-CON(CH3)CH2Ph) [Cbz-Ala-Ala-AAsn-(S, S)-EP-CON(CH3)CH2Ph]	63			
PhPr-Val-Ala-[AAsp]-{(2S,3S)‑EP‑CON(CH2Ph)2} [PhPr-Val-Ala-AAsp-(2S,3S)-EP-CON(CH2Ph)2]		830	145	k2 [2]: 101000 M⁻¹ s⁻¹
Cbz-Ala-Ala-[AAsn]-{trans‑EP-CH2CH2Ph} (reading uncertain; also: printed as Cbz-Ala-Ala-AAsn-(trans)-EP-CH2CH2Ph) [Cbz-Ala-Ala-AAsn-(trans)-EP-CH2CH2Ph]	70			
Cbz-Ala-Ala-[azaAsn]-{(2S,3S)‑EP‑COOEt} [Cbz-Ala-Ala-AAsn-(2S, 3S)-EP-COOEt]	53			inhibition of substrate hydrolysis [5]: < 20 % inhibition; inhibition of substrate hydrolysis [6]: < 20 % inhibition; inhibition of substrate hydrolysis [7]: < 20 % inhibition; inhibition of substrate hydrolysis [8]: < 20 % inhibition; inhibition of substrate hydrolysis [9]: < 20 % inhibition
Cbz-IET[azaAsp]-{(2S,3S)‑EP‑CON(CH2Ph)2} [Cbz-Ile-Glu-Thr-AAsp-(2S,3S)-EP-CON(CH2Ph)2]		3550	32000	
Cbz-Ala-Ala-[AAsn]-{trans‑EP-Ph‑4‑Cl} (reading uncertain; also: printed as Cbz-Ala-Ala-AAsn-(trans)-EP-Ph-4-Cl) [Cbz-Ala-Ala-AAsn-(trans)-EP-Ph-4-Cl]	90			
PhPr-Val-Ala-[AAsp]-{(2S,3S)‑EP‑CON(CH3)CH2Ph} [PhPr-Val-Ala-AAsp-(2S,3S)-EP-CON(CH3)CH2Ph]		1950	136	
PhPr-Val-Ala-[AAsp]-{(2S,3S)‑EP‑CON(CH2CH2CH2CH3)2} [PhPr-Val-Ala-AAsp-(2S,3S)-EP-CON(CH2CH2CH2CH3)2]		520	53	k2 [2]: 26200 M⁻¹ s⁻¹
Cbz-IET[azaAsp]-{(2S,3S)‑EP‑CON(CH3)CH2Ph} [Cbz-Ile-Glu-Thr-AAsp-(2S,3S)-EP-CON(CH3)CH2Ph]		4780	47700	
